In the NTF2 design screens of Basanta et al. (2020) one finds protease stability score data, which are given here for 47 sequences.

This data set is described as follows: protease stability score; higher = more stable; yeast display proteolysis, trypsin and chymotrypsin.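 Also: relative to predicted unfolded state with 0 unfolded-like and 1 meaning tenfold more protease.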
Sequence “GELEKLATTIVRLWVRHWYTGDEESSMRLMDPNARIIINGKEMHGRELYVHFLRRVLEHIRPESVDIEEVKIQGDYAHIDITEHRRIGDKEVTFRTEVSIIVINGKVTEVHMEIR” registered a protease stability score of 1.7.
In the case of “GEMEKLLFKIFEEWMKLRKTGDEDVIAHLADPDYRWDVNGVDLHGMEHVKEFTEEFLRHLGFDHQEYRIRRFDHDGNKLRADTEVRIVVNGVDITHRTHIIIVQFNGKVKSVKERIR”, the protease stability score worked out at 0.292.
In the case of “GENEQLIEEAVKMFMDIHHTGDWRDVHHLLDPHMRLDVNGVDYHGRDLWVRIAKEISEHARTEVRIRHLEIQGDKVIVHGQIILRIGDKTHVIDTRHIIIKINGRWKLHSVDIH”, the protease stability score came out at 1.32.
For the sequence “HDDEEIIKREIDFFLEVLLTGDWRHLNELLDPHARLEIGDKRFHGREAVIKEIRTFIERFGVDHSEIDTVNIQGEKAEYKFTLKVGDKRHELHITMTKINGRWYITEVKFS”, the protease stability score stood at 1.79.
“HDDHESADKFIREEIEYQRTGDWHRFEELLDPDVRLEQGNYHAHGREEVSTIFLMHLTRVKNMRMEVTRMEIINGRLSLHLKLDFNGREFHFSTIVQKVNGKWIIKAEHFI” gave a protease stability score of 0.507.
Under “HDDQKESHEWAKLFEDWLQTGDEESILKQLDPHVRIEIGDKRNHGREELHRYEHEFWTKFGIDHIHIDDIRVQGEKVHLETTVIVNGRKFQQIIIVVFIDGVMQRLVIEDR” stands 0.798; under “HDEDEESRNAVEEYWRVLHTGDEKRWHELADPNVRNEIDGRTYHGRESFRFLFHLHEEKFKNVKIELHSVNIQGDKIKMLIEIKYGDKNIHMIIIAQKIDGKWKNERIHVFHH”, 0.744; under “HDEEKHDREYVEEMLEVWLTGDFDRIMHLFDPNARQEVNGVDIVGRERLHEFNRRWEEDMGFDHSHTHHVEVVNGRVHSDTRVHFNGREMETHLDLRVVNGRIKSIRVSYN”, 0.094.
Under “HDEERDSKIASSIMVETWKTGNEHLMERMFDPHTRSHVGDKEIHGMEEFIRWLYELLRKIKNARFTVEDTDLINGVVVVITRLHVGDKDFLLTFFVEKFNGRWHLRSFEMK” stands 0.772; under “HDEERELTIVSERIIKIFETGDWEELHKMADPRVKVIVNGRETHGMERYVKHLEQIRTILTNIHLHDVDLQGDFLHIDLEARGRILVNGRDTTFNWELKITIDKFDGRWRMKRINVN”, 2.16; under “HDEEREVHEWIKLIEHHLRTGDEDAVRKLVDPTVRNDINGVDVVGRREDVERLHQADHIDIELKHVEIQGDKLHIDGVLILDFNGRHFYFRMKIIASKYNGVWKIKEKRVH”, 0.999.
The result for “HDHDKHLDRLEELMLRWWKTGDWDKILKYADPHTRSDVNGKEYHGRESMVRAFEHVLKMLGIDVVYDQSHHLQGEKAKFHQESRVGDKRVEVIIIITIVDGRVTEFEVEVHHN” reads 0.722.
“HDKEHLSEYLLDLTEYLIRTGDFKLMLKMADPHVRNHIIIGEFELEYHGWHVYIHWLEKVLRRFGVDHVHVTHRNAQGDKVEMDTHLEVNGRRHDVDQHWVYINGRIEHVRFRIR” had a protease stability score of 0.794.
The result for “HDKEKEDKEWIKRLLDTIETGDPEQFSHLADPNVKAEFENHDSVGMEEVFKILEHLRIDHVRMKDMRIQGDWVHLITEMDGTINGKKIILKSRIIALKVNGRWVLTSTSLK” reads 1.42; that for “HDLEETVRDMIHLLMTFVETGDEDSVHRLIDPHVRVEVGDKLTHGRQWVHLLIKRADVLEIRIEDMRIVGDKALIVSKYHIRIDGVFIVYNIDIYAEKIDGRWVTTEIKVD”, 1.71; that for “HDLEKFLDHFFEKLMKELETGDEQSWRRLADPRARLHINGKDFHGREFEHELRNKWGVSRVEEKLDSRDVIGNKLILDGSLSVNGKEIKAILFVQKVDGKWEFKEIEVH”, 1.34.
Under “HDLEKLVKFWYELWLRLLLTGDEEIFSHLADPNARLEVDGVEFVGREQVLKDLKRRMEEMRLTSMIITHVDWQGEKNRTEGITHGRINGVDITSETHLVLVIVNGRIRSIRIEIR” stands 1.54.
Regarding “HDMEERSKHVHHIILRSLRTGDEDAYERLADPDTRLHVGDKNIHGRESIRNIWREILERIPNMRIELELEDSEIVGDYIYLKINLRMNFDGREVEHEIRIVSLKINGRWVEKSVHFR”, the protease stability score came out at 0.591.
Under “HDQDESAKWVIEVLIRASYTGDFDMFIKYFDPNAKSLIDGKTFHGREDLKRHMDRFDHITHVRFHLRDRKMVGDKLIIHGQLEVHGYQGDWEIHMTRDVHIILRKVDGRWHIEELRLE” stands 2.18; under “HDREKIAITFLKFLIHWHLTGNEDHLRENIDPHVRIRIHIDGKNNHLVGMEDWYKWVREELERADHLELRLDDVDVQGDKLHSDITNIIRIDGKTIVRKVHVHLDVVNGQVKSIEIEIR”, 2.54.
Under “HDREKLMEELVKNWIHLLKTGDEDQLHRLLDPHAKWDINGRELHGMEHINRRISEWRIEFNERHVEVIGEKIHIEGDLRVEIDGRRDEFHSEIELVIVNGRVKEIIVREG” stands 0.895; under “HDRKREIDHVLKLWINHFKTGDEDFHERNMDPHVRLHQGNYETHGREEVKKFLKRLFDEFGADHIHIRDYRIDVQGDKITIVMEVEIRVGNYRIDIEFILYVAKVDGKWHVHHYEIRNH”, 1.06.
Turning to “HDRNEIIREALRILIHSILTGDEDHLREFADPHVKSDINGQEFHGREVFFMWLLHMRIQTVTIKHVDVQGEKARVYSSIHGDVDGQRTEYHTEIFSQKVNGRWIIRTIRVE”, the protease stability score stood at 1.16.
Take “HEDDELLRQNVKVLLDMVETGDEHTLENMLDPHVRFEAENHHHHGRENLIRALKELLTRLGVKHWRSFEVERIDIQGDFIFLDTVFIMEVDGRKRKIKIHIVARKINGRWLIESIRLD”: the protease stability score was 1.48.
On to “HEDDEMKKKWFEEWERRIHTGDEEEINKLADPHVRLEIGDKTRHGREEFTRYLWEFLYEFGANHVEIRYEEIRIINGVVHIRSRIHIHVDGRHIHLETHLIVFKFDGQWRLHTLHYK”, for which the protease stability score was 0.872.
Under “HEDDHAVRKTIEDLLRSITTGDFELYSKLADPNTRFNIDGVNDVGMEIWVEKAIQHGWKVRHFHIRDVEVQGDKIDVDLKIDEDVNGRRIDIHVLLIIRKIDGRWILESVEHV” stands 1.64.
Under “HEDDHQAERITHITMHAILTGDWRRMEELLDPHYRIEFENHENIGRERVNKVLIDLGIRNEIEIKRIRFQGDFVEIDGKLKIDVGDKHIEIKVRLFYVKINGRWFHHHVDLR” stands 0.835; under “HEDDRIVQEHWKRLSEAWLTGDEERAKKNADPNTREVINGKELHGREEVTRLYREIRRSIEHVEIRDSRIQGDKLLIDVNMVISVIIGDKEFRIEVRVNVIMIKFDGVWHLETVHFH”, 0.187; under “HEDEDILREALKTLRHSIQTGDEDLLRELMDPNVRLETEHERLHGWEYVSKFMMDLYKRYDHMEYTVHDYKVYGDFLRVDVQLDVKQGEKDDVISTHMLALKFDGKWHIKKIIIE”, 1.56.
Take “HEDEDLLEELARKYKHHLETGDEHIIRRLVDPHVRIEQGEKKLIGREEFLRILTELLRSWGVTRFEFRIEDFRLQGDKAHMRGSVEVGDFHHDVEIVSRKIDGRWVITHYHEI”: the protease stability score is 0.118.
Under “HEDEEEMKKFIHRWENDLRTGDEESHRRLADPNTLLVVNGRRVHGMEAVLHIVREMRLHEVYIDDIRIINGRAHTELTVKGEIDGVKHWSHTHIHVTKVNGQWHIDTIRIL” stands 0.663; under “HEDEEEQRLANEIFHKMIWTGDEERLKDLMDPHVRIDVNGREVHGMEEWLEHFLQFKNMKFRVHFRENRIIDGVARSRTELRIIFDGREYRIDLIVIAQKINGRWILRSIEIR”, 1.34.
Under “HEDEEHALKLTMDFLRWIYTGDEDTLNKYADPNVRLDIGDKVFHGMEFINKHMKELRFHRIHVKRFEAHVVDGKLRSHMDVRIDGNVDGRRRETDVELIFFWEKIDGRWVNTSIIIHHH” stands 1.27; under “HEDEEIIERILREFLHYQNTGDEDELRKLADPNVRVIQGDKHFVGREEFRRWVHEHLSQVDHVELEIEDMRIVGDFVEIRGKLHNKAEGRSIKEEVRLVLFKFDGRWTLHDVRVH”, 2.09.
“HEDEEISQNMMETMLRIIHTGDWHRFTELFDPHVRIEVNIGDKHLESVGREEARKWLERFKNRRTEIRDAKVRVQGDKVEIRIDGNVNVDGKEKHVEIILYIEKIDGRWLVHSVIIIIE” yielded a protease stability score of 2.13.
The sequence “HEDEEIVKTFAKIRTELERTGDWETIMRLLDPHVRMDIDGVRVHGMEEVVRHIREFEEKFGVTNVQSRFRDVRIIGDKVDIHSQVHINGVEKNLHIHVEKFNGKWVITEIKIE” gave a protease stability score of 1.28.
Under “HEDEEKVKNMVRHEIQALQTGDWDHWLNLADPHVKLYIDGRINHGRHVIRFLVERFDHFRIDHYEVRSINHVDGRVRVNTQLHGQETINGVHEKHTVEVEMTIIKVNGRWYIEHLELE” stands 1.2; under “HEDEELMKELLKRWLNMLETGDWQNLAHYADPHVRLEFDGREIHGRTEVYRVLVEFHDKIKGMTYILKHSFYVGDKIHIKGSIRIGDKEYDTEIHIIIVDGRLKEVRVEHR”, 1.98.
Under “HEDEELSEKWLEDILRDHETGNEHRLRELFDPDARSHVGDKKIIGREDWSRALKEFIEKFPGVRIEIRHHENDIVGDKVRLDVTIILNFNGVEHEMKVTLILRKYNGRWRIREIRIR” stands 1.25; under “HEDEELSEWMEREMIDIMRTGDEHRFLRMADPNTRFEFNGKDIHGRERVLDVLEFLGIDHMEFEDSKVRLYDGRVEVRLEGRINVGDKQSESRITIKAEKINGRWVLHEVSIEHH”, 0.821.
For “HEDEELSRKAVELMLELIMTGDEDTIRSLADPDTRIEINGRHHHGRHLMVEFMREWFRRYPNVQLDVHSLDIDLFNGRVLIQINLEIRIGDKHHRVRINIHADKVDGRWRLKEVRIEIK”, the protease stability score was determined as 1.5.
In the case of “HEDEEMLHRLAELVEELFRTGDEEMHDHLMDPHARINIDGRDLHGRENMRILWQKLGIERVHVEFHDVKAIGDKASVHTFLEVNGVKVEILIRSEKINGRWVITQINIVFH”, the protease stability score turned out to be 0.386.
Under “HEDEEMSQRMLDELMRFSRTGDWQRSAELADPHVRIIIGDKHLHGMEHWSELLKRIDHSHFHLRHVDIFENHIRLQGELRLHINGVEHRHEVIIKAHKVDGQWILESVEIR” stands 0.768; under “HEDEESMEHSIRRLIQAIETGDFHELTELADPHVKLTIGDKEYIGREQWEKTLRDLGIDHFDVKRSKLIGDYARVDGKVNVNGQFRDTTVIMKKVDGKWLIRSWHVH”, 1.91; under “HEDEEWAEKMVREFLEATRTGDFESTLQLADPHVRFIINGKDIHGMEDWQEHLEHIRIQYHDIRIEHREVIGDKIYVKTRIDVTIHINGRKHRTVLDVEFIIHKVNGRWIIRELEIR”, 1.61.
Take “HEDEHELRHAVELFIWLIHTGDWHTELRLADPDVRHEVNGVENHGRELMLEDLQRIKNIRFHVRRVEIRVYGDKADLHIHGRKIVDGRHKELEIHVHIRKVNGKWLLHEVEVNIR”: the protease stability score was found to be 1.59.
The result for “HEDEHKWERAFRIWIHALITGDEETTNELMDPNTRLNFNGVDFIGREDMIELIRHIRIHREHITHVEIRTFNGVLHVHMHVRRDGNINGQRRNTDVEIHIVIFKVNGRWVLHSTTIVVN” reads 2.23.
